This passage reports stoichiometry N results from publication PMC4399817.

The target in assay [1] is HLA-B27.C101S, C-terminally Sv5 tagged misfolding mutant of HLA-B*27:05 (human). As to the kind of experiment: non-reducing SDS-PAGE and immunoblot. (Immunoblotting shows a protein as a band on a membrane.)
The target of assay [2] is HLA-B27.C164S, C-terminally Sv5 tagged misfolding mutant of HLA-B*27:05 (human). As to the kind of experiment: non-reducing SDS-PAGE and immunoblot.
Assay [3] deals with HLA-B*27:05 heavy chain, carboxy terminally Sv5 tagged, stably expressed in isogenic HeLa cells (HeLa-B27.Sv5) (human). In words: pulse chase, immunoprecipitation and non-reducing SDS-PAGE.

What is called stoichiometry N is the number of molecules, sites or subunits per partner or assembly.

Substance “HLA-B27.C101S, C-terminally Sv5 tagged misfolding mutant of HLA-B*27:05 (natural protein)” had a stoichiometry N in assay [1] of 2.
For “HLA-B27.C164S, C-terminally Sv5 tagged misfolding mutant of HLA-B*27:05 (natural protein)”, in assay [2], the stoichiometry N worked out at 2.
Regarding “HLA-B*27:05 heavy chain, carboxy terminally Sv5 tagged, stably expressed in isogenic HeLa cells (HeLa-B27.Sv5) (natural protein)”, in assay [3], the stoichiometry N worked out at 2.
